We go through six molecules from paper PMC6265486 (Nucleic Acids Research, 2018).

In data set [1] the target is T1, human mtSSB (Homo sapiens) (UniProt Q04837).
T1 sequence: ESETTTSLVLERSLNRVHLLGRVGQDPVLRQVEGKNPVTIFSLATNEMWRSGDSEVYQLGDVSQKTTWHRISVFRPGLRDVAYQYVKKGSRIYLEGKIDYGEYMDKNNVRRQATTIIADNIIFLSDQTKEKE
The data set can be described thus: AFM. The note with it: Anisotropy: 30 mM HEPES-KOH pH 7.5, 1 mM 2-mercaptoethanol, 5 mM MgCl2, 0.01% NP-40, 50 mM NaCl, 20 nM oligo, 20 C. AFM/DREEM: incubation in 20 mM HEPES pH ….

Data set [2] concerns the molecule itself. The data set can be described thus: AFM volume measurement; free mtSSB (8.4 nM tetramers) diluted in 20 mM HEPES (pH 7.5), 100 mM NaCl, deposited on freshly cleaved mica, imaged in air (AC mode); AFM volume converted to molecular weight with a calibration curve.
Data set [3] has as its target T2, E. coli SSB (Escherichia coli, UniProt P0AGE0 1-178). Put plainly: fluorescence anisotropy; 5 mM MgCl2, 50 mM NaCl; tetramers; Hill coefficient 1.84; Anisotropy: 30 mM HEPES-KOH pH 7.5, 1 mM 2-mercaptoethanol, 5 mM MgCl2, 0.01% NP-40, 50 mM NaCl, 20 nM oligo, 20 C. AFM/DREEM: incubation in 20 mM HEPES pH 7.5.
The target of data set [4] is T3, human mtSSB (Homo sapiens, UniProt Q04837 17-148).
T3 sequence: T1 sequence
The data set can be described thus: fluorescence anisotropy; 5 mM MgCl2, 50 mM NaCl; tetramers; Hill coefficient 2.00; Anisotropy: 30 mM HEPES-KOH pH 7.5, 1 mM 2-mercaptoethanol, 5 mM MgCl2, 0.01% NP-40, 50 mM NaCl, 20 nM oligo, 20 C. AFM/DREEM: incubation in 20 mM HEPES pH 7.5.

Data set [5] deals with T3, human mtSSB. Put plainly: AFM/DREEM; 100 mM NaCl; 10 mM Mg(OAc)2 in imaging buffer; 85% one strand wrapped, 15% two; Anisotropy: 30 mM HEPES-KOH pH 7.5, 1 mM 2-mercaptoethanol, 5 mM MgCl2, 0.01% NP-40, 50 mM NaCl, 20 nM oligo, 20 C. AFM/DREEM: incubation in 20 mM HEPES pH 7.5.
The target in data set [6] is T2, E. coli SSB. The data set can be described thus: AFM/DREEM; 100 mM NaCl; 10 mM Mg(OAc)2 in imaging buffer; 35% one strand wrapped, 65% two; Anisotropy: 30 mM HEPES-KOH pH 7.5, 1 mM 2-mercaptoethanol, 5 mM MgCl2, 0.01% NP-40, 50 mM NaCl, 20 nM oligo, 20 C. AFM/DREEM: incubation in 20 mM HEPES pH 7.5.
The target of data set [7] is T3, human mtSSB. The data set can be described thus: fluorescence anisotropy; 5 mM MgCl2, 50 mM NaCl; tetramers; Anisotropy: 30 mM HEPES-KOH pH 7.5, 1 mM 2-mercaptoethanol, 5 mM MgCl2, 0.01% NP-40, 50 mM NaCl, 20 nM oligo, 20 C. AFM/DREEM: incubation in 20 mM HEPES pH 7.5. A general note: Polarisation of emitted light reports the rotation of a fluorescent probe.
For data set [8], the target named is T3, human mtSSB. The data set can be described thus: fluorescence anisotropy; 5 mM MgCl2, 50 mM NaCl; Anisotropy: 30 mM HEPES-KOH pH 7.5, 1 mM 2-mercaptoethanol, 5 mM MgCl2, 0.01% NP-40, 50 mM NaCl, 20 nM oligo, 20 C. AFM/DREEM: incubation in 20 mM HEPES pH 7.5.

T2 sequence (P0AGE0 whole entry): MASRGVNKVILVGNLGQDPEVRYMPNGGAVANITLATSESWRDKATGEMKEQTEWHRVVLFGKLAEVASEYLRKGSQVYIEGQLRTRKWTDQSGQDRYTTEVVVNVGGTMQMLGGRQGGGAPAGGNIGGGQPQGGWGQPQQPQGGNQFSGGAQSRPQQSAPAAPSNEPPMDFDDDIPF

In data set [1], linear 2030-bp DNA with 37-nt ssDNA gap yielded a binding signal (KSP/KNSP (gap vs duplex specificity)) of 14500.

B1: human mitochondrial single-stranded DNA binding protein (natural protein, UniProt Q04837 17-148, looked up)
chain: T1 sequence
Usually stoichiometry N stands for the number of molecules, sites or subunits per partner or assembly. On to B1, for which the “stoichiometry N” value in data set [2] amounted to 4.

B2: 5'-fluorescein 90-nt oligonucleotide (ssDNA)
DNA: TAATGCTATCACTATTCGTAGACTTGACCACACCTTGTCAGCTCACGCTCCAAATGAAAGTATAGCTAAACAGGTTATTGACCATATGCA
modifications: fluorescein on 5'-terminal T
In general, Kd refers to the free concentration of one partner at which half of the binding sites on the other are occupied at equilibrium, for simple one-to-one binding. Read a low Kd as tighter binding. On to B2, for which the Kd in data set [3] is 25.4 ± 1.3 nM; in data set [4] it was 14.7 ± 0.5 nM.

B3: 90-nt oligonucleotide (ssDNA)
DNA: B2 DNA
Take B3: the binding result in data set [5] and in data set [6] was “binds” in each case.

B4: D1-F 40-nt ssDNA (ssDNA)
DNA: ATGCTAGCTTGGCTGTGACTTTAAACCTGTCGTGCCAGCT
modifications: fluorescein on internal T21
B4 had an equilibrium dissociation constant (Kd) in data set [7] of 1.8 ± 0.9 nM.

B5: D1-F/D2 40-bp dsDNA (dsDNA)
DNA 1: B4 DNA
DNA 2: AGCTGGCACGACAGGTTTAAAGTCACAGCCAAGCTAGCAT
modifications: fluorescein on internal T21 of D1
B5: the binding result in data set [8] is “no binding”.
